The source of these data is patent US7052851B2, “Crystal structure of cysteine protease” (Novartis International AG, priority 1996, dated 2006).

The star is where a group is joined. CH2F = FC*

The target of this assay is T1, recombinant human CPP32 (Homo sapiens, UniProt P42574).
T1 construct: β-CHAIN; 29; 175; CPP32 P17 SUBUNIT; α-CHAIN; 176; 277; CPP32 P12 SUBUNIT; made in house; host or cells: E. coli BL21 (DE3), pET21b
T1 sequence (P42574 29-175): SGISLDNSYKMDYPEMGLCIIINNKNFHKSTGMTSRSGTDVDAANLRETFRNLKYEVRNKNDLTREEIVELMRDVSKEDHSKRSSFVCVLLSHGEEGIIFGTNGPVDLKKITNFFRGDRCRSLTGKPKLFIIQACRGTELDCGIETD
T1 sequence (P42574 176-277): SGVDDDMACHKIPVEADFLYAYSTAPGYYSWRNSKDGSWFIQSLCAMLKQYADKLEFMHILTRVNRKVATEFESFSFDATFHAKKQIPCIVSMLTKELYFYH
Nature of the assay: CPP32 protease activity inhibition (enzyme treated with irreversible inhibitor before crystallization). The assay is classed as biochemical. Conditions: slight excess (1.6×) of inhibitor added to purified recombinant human CPP32 (C-terminal 6His) in 50 mM DTT, 50 mM HEPES, pH 8.0, on ice. The text has this: As defined herein, purified CPP32 is more than 95% homogeneous. Protein homogeneity is determinable according to analytical methods well-known in the art, e.g. sequence analysis, electrophoresis, spectroscopic or chromatographic techniques. The purified protein is enzymatically active. Appropriate assays for determining CPP32 protease activity towards a suitable substrate, e.g. a natural substrate, such as PARP, or a synthetic substrate which is cleavable by CPP32, is known in the art. Advantagously, a peptide, such as aminomethylcoumarin, is used as synthetic substrate. […]
Recombinant human CPP32 expressed in a soluble form in E. coli (E. coli BL21) is purified to homogeneity by Ni^2+ chromatography using an imidazole gradient (60 mM-1 M). […] The purified CPP32 protein is more than 95% homogeneous, as determined by SDS-PAGE (10–20% gradient gel), reverse phase high performance liquid chromatography (RP-HPLC), MALDI-TOF mass spectrometry, N-terminal sequence and amino acid analysis. […] The purified CPP32 protein which is a (p17p12)2 tetramer in solution, as analyzed by dynamic light scattering, compares to the published CPP32 amino acid sequence (Fernandes-Alnemri, T., Litwack, G. & Alnemri, E. S. (1994). J. Biol. Chem. 269, 30761–30764, FIG. 1, p.30762) as follows: […]

For the substance “Ac-Asp-Val-Ala-Asp-fluoromethylketone (Ac-DVAD-CH2F; SMILES CC(=O)N[C@@H](CC(=O)O)C(=O)N[C@H](C(=O)N[C@@H](C)C(=O)N[C@@H](CC(=O)O)C(=O)CF)C(C)C)”, the enzyme inhibited is 99.9%.
